Measurements taken from US20230295345A1 (published 2023).

T1: matriptase-3 (TMPRSS7) over-expressed in HEK293T cells (human, UniProt Q7RTY8 1-843)
T1 sequence: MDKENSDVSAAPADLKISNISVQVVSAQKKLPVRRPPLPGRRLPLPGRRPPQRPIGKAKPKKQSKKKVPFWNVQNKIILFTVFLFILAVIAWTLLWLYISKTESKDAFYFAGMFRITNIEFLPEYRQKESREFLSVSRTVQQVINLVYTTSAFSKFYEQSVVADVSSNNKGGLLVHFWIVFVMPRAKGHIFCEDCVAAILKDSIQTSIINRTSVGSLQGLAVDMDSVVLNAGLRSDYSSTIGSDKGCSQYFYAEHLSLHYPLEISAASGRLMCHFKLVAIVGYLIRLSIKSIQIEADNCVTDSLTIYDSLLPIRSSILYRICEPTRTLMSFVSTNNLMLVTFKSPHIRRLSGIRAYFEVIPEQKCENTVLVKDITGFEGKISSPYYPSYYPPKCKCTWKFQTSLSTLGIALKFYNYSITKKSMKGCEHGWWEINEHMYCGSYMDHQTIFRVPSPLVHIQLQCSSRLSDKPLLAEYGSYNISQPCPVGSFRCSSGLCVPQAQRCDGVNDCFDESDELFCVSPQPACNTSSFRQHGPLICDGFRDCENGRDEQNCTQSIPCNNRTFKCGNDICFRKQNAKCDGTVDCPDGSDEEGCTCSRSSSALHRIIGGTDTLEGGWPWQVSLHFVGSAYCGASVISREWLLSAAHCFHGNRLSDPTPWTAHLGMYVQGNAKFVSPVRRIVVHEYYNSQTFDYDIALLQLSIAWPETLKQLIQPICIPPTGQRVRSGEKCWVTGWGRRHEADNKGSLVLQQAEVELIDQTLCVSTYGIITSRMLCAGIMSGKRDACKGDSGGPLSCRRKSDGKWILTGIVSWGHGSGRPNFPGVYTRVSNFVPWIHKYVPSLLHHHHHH

T2: TMPRSS6 expressed in transfected HepG2 cells (HAMP-luciferase reporter assay) (UniProt Q8IU80 1-811, limits assumed)
T2 sequence (looked up): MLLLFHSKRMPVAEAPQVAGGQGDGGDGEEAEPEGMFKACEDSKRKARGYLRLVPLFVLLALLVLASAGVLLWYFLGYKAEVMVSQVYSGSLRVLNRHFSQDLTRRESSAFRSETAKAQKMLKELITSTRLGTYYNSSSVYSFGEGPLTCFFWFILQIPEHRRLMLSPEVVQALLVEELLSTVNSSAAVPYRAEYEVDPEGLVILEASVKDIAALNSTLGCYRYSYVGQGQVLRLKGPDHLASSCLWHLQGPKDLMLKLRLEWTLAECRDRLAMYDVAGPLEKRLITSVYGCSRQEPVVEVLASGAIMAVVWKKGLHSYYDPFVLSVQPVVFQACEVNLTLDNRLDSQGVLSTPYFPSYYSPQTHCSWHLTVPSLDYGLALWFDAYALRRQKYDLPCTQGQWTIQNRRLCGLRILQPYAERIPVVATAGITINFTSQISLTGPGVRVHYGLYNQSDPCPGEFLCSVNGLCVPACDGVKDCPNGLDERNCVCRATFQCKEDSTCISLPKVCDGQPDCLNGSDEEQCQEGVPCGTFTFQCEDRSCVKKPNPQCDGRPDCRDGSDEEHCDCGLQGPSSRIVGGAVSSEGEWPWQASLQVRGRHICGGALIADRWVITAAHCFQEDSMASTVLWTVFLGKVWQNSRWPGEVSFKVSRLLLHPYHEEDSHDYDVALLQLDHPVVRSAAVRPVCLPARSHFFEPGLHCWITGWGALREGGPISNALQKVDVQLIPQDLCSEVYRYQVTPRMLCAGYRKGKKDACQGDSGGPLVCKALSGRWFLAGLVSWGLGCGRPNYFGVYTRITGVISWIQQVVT

B1: MWTx-001 anti-TMPRSS6 antibody (antibody, mouse IgG2a, kappa, V domains shown)
VH: QVQLQQPGAELAKPGASVKMSCKASGYTFTSYWITWVKQRPGQDLEWIGNIYPGSGSTYYNEKFKSKATLTVDTSSRTAYMQLSSLTSADSAVYYCAPYDSDYAMDYWGQGTSVTVSS
VL: DIKMTQSPSSMYASLGERVTITCKASQDINNYLSWFQQKPGKSPKTLIYRANRLVDGVPSRVSGSGSGQDYSLTISSLEYEDVGIYFCLQYDEFPLTFGAGTKLELKR
notes: Mouse monoclonal antibody from a hybridoma (ATCC PTA-126759)
B2: hzMWTx-001Var anti-TMPRSS6 antibody (antibody, human IgG1, kappa, N297A, V domains shown)
VH: EVQLVQSGAEVKKPGASVKVSCKASGYTFTSYWITWVRQAPGQRLEWIGNIYPGSGSTYYNEKFKSKATITRDTSSRTAYMELSSLRSEDTAVYYCAPYDADYAMDYWGQGTLVTVSS
VL: DIQMTQSPSSLSASVGDRVTITCKASQDISNYLSWFQQKPGKAPKLLIYRANRLVEGVPSRFSGSGSGTDFTLTISSLQPEDFATYFCLQYDEFPLTFGGGTKVEIKR
notes: Humanized variant of MWTx-001, human IgG1/kappa
B3: hzMWTx-003Var anti-TMPRSS6 antibody (antibody, human IgG1, kappa, L234A L235A, V domains shown)
VH: QVQLVQSGAEVKKPGASVKVSCKASGFNIEDYYMHWVRQAPGQRLEWMGRIDPEDAETTYSPKFQGRVTIIPDTSANTAYMELSSLRSEDTAVYYCARSIYLDPMDYWGQGTLVTVSS
VL: DIQMTQSPKSLSASVGDRVTITCRASQDVTTALAWYQQKPGQSPKLLIYWATTRHSGVPSRFSGSGSGTDFTLTISSLQPEDFATYYCQQHYSTPYTFGQGTKLEIKR
notes: Humanized variant of MWTx-003, human IgG1/kappa
B4: hzMWTx-002Var anti-TMPRSS6 antibody (antibody, human IgG1, kappa, N297A, V domains shown)
VH: EVQLVQSGAEVKKPGASVKVSCKASGFNIKDYYIHWVRQATGQGLEWMGRIDPEDAESEYAPKFQGRVTITADTSTDTAYMELSSLRSEDTAVYYCTRGDSMMVTYFDYWGQGTLVTVSS
VL: DIQMTQSPSSLSASVGDRVTITCKASQDVSTAVAWYQQKPGKAPKLLIYWAFTRHTGVPSRFSGSGSGTDYALTISSLQPEDFATYYCQQHYRSPWTFGGGTKVEIKR
notes: Humanized variant of MWTx-002, human IgG1/kappa
B5: MWTx-003 anti-TMPRSS6 antibody (antibody, mouse IgG2b, kappa, V domains shown)
VH: EVQLQQSGAELVKPGASVKLSCTASGFNIEDYYIHWVKERTEQGLEWIGRIDPEDGETTYAPQFQGKATIIPDTSSNTAYMQLSSLTSEDAAVYYCARSIYLDPMDYWGQGTSVTVSS
VL: DIVMTQSHKFMSTSVGDRVSITCKASQDVTTAVAWYQQKPGQSPKILIYWATTRHTGVPDRFTGSISGTTYILTISSVQAEDLALYYCQQHYSTPYTFGGGTKLEIKR
notes: Mouse monoclonal antibody from a hybridoma (ATCC PTA-126761); also called r4K12B (recombinantly expressed version, same HC and LC)
B6: MWTx-002 anti-TMPRSS6 antibody (antibody, mouse IgG2b, kappa, V domains shown)
VH: EVQLQQSGAELVKPGASVKLSCTASGFNIKDYYIHWVKERTEQGLEWFGRIDPEDGESEYAPKFQGKATLTADTSSNTAYLQLSSLTSEDTAVYYCTRGDSMMVTYFDYWGQGTTLTVSS
VL: DIVMTQSHKFMSTSVGDRVSITCKASQDVSTAVAWYQQKPGQSPKLLIYWAFTRHTGVPDRFTSTGSGTDYALTISSVQAEDLALYYCQQHYRSPWTFGGGTKLEIKR
notes: Mouse monoclonal antibody from a hybridoma (ATCC PTA-126760)

Target: T1, matriptase-3 (TMPRSS7) over-expressed …
Experiment: FACS on permeabilized HEK293T cells over-expressing TMPRSS7
Description: To determine if anti-TMPRSS6 antibodies bind to homologous matriptases, HEK293T cells over-expressing matriptase (ST14) (SEQ ID NO: 100) (FIGS. 5B, 5E, 5H, 5K, 5N, 5Q), and HEK293T cells over-expressing matriptase-3 (TMPRSS7) (SEQ ID NO: 101) (FIGS. 5C, 5F, 5I, 5L, 5O, 5R) were collected (generated in house). HEK293T cells stably expressing human TMPRSS6 (matriptase-2) (SEQ ID NO:97) (generated by LakePharma Inc as described above, FIGS. 5A, 5D, 5G, 5J, 5M, 5P) were used as a positive control and HEK293T cells (FIGS. 5A-5R) were used as a negative control (as described above). Cells were blocked and permeabilized with dPBS + 3% BSA + 0.1% Tween-20 before incubation with various anti-TMPRSS6 antibodies diluted in dPBS + 3% BSA + 0.1% Tween-20. Cells were incubated with anti-TMPRSS6 antibodies and their humanized variants at a concentration of roughly 1 µg/ml for 1 hr. After incubation, cells were washed with dPBS and incubated with goat anti-mouse IgG conjugated with AlexaFluor-488 (Invitrogen, FIGS. 5A-5I) or goat anti-human IgG conjugated with Allophycocyanin (APC) (Jackson Immuno Research, FIGS. 5J-5R) as a 2° antibody. At last, cells were washed with dPBS and re-suspended with dPBS + 1 mM EDTA, and then subjected to FACS analysis using a NOVOCYTE® Flow Cytometer. Bound antibody was determined by excitation at 488 nm and measurement of emission (FITC-A) at 530 nm (FIGS. 5A-5I) or by excitation at 640 nm and measurement of emission (APC-A) at 675 nm (FIGS. 5J-5R). Results for these assays are shown in histogram plots in FIGS. 5A-5R.

Row | binding result | Binder
1 | no binding (tested: roughly 1 µg/ml) | B1
2 | no binding (tested: roughly 1 µg/ml) | B2
3 | no binding (tested: roughly 1 µg/ml) | B3
4 | no binding (tested: roughly 1 µg/ml) | B4
5 | no binding (tested: roughly 1 µg/ml) | B5
6 | no binding (tested: roughly 1 µg/ml) | B6

Target: T2, TMPRSS6 expressed in transfected HepG2 …
Experiment: cell-based or functional assay

Row | EC50, HAMP promoter activity (HAMP-luciferase reporter assay in HepG2 cells) [µg/mL] | Binder
7 | 3 | B1
8 | 0.8 | B2
9 | 0.3 | B3
10 | 0.3 | B4
11 | 2 | B5
12 | 1 | B6
